Target: GST-tagged Rheb-G63V expressed in HEK293T (UniProt Q15382)
Assay: GST pull-down and immunoblotting, band intensity quantified
Settings: HEK293T cells, transient co-expression; mean ± SEM (n = 3); parent: est. 1.0; read off a plot

Chain of SFB-tagged ATP6AP1 (wild type, full length) (Q15904 42-470 I469del/V470del): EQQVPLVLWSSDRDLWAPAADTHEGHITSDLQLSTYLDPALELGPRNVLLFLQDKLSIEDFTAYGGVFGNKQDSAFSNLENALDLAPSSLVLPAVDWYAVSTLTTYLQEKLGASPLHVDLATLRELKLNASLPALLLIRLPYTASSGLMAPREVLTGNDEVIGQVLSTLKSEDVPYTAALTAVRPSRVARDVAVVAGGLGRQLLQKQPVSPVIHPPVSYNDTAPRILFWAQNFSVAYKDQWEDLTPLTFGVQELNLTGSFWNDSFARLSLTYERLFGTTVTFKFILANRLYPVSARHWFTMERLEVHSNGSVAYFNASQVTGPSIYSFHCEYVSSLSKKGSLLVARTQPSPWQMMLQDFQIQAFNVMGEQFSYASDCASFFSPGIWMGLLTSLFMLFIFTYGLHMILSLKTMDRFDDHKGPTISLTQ
Chain of GST-tagged Rheb-G63V expressed in HEK293T (Q15382 whole entry G63V): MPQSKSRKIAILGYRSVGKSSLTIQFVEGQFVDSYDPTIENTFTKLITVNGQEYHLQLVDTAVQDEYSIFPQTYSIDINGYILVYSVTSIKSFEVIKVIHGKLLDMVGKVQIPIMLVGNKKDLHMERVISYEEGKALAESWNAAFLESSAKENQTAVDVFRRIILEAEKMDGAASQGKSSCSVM

ratio to parent (relative to ATP6AP1): 0.77
Substance: SFB-tagged ATP6AP1 (wild type, full length) (from UniProt Q15904) I469del; V470del

— publication PMC11061317
